Test results published in IntAct's records for PubMed 31515488.

B1: Notch homolog 2 N-terminal-like protein A (Homo sapiens), Q7Z3S9 (parent)
chain: MCVTYHNGTGYCKCPEGFLGEYCQHRDPCEKNRCQNGGTCVAQAMLGKATCRCASGFTGEDCQYSTSHPCFVSRPCLNGGTCHMLSRDTYECTCQVGFTGKECQWTDACLSHPCANGSTCTTVANQFSCKCLTGFTGQKCETDVNECDIPGHCQHGGTCLNLPGSYQCQCLQGFTGQYCDSLYVPCAPSPCVNGGTCRQTGDFTFECNCLPETVRRGTELWERDREVWNGKEHDEN
partner: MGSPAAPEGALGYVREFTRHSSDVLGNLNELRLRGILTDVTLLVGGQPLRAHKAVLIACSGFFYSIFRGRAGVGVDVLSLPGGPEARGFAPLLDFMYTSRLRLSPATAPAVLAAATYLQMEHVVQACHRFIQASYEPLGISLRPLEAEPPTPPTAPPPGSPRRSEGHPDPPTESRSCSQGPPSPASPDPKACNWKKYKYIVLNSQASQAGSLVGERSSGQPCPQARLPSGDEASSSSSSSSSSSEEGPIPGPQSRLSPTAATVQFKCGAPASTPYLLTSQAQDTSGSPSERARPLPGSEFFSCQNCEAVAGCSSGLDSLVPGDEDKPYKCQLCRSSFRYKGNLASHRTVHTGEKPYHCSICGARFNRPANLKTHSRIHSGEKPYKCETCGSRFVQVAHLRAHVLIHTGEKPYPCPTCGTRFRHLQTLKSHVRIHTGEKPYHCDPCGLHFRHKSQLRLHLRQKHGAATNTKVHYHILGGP
B2: Proton-coupled zinc antiporter SLC30A2 (Homo sapiens), Q9BRI3 (parent)
chain: MEAKEKQHLLDARPAIRSYTGSLWQEGAGWIPLPRPGLDLQAIELAAQSNHHCHAQKGPDSHCDPKKGKAQRQLYVASAICLLFMIGEVVGGYLAHSLAVMTDAAHLLTDFASMLISLFSLWMSSRPATKTMNFGWQRAEILGALVSVLSIWVVTGVLVYLAVERLISGDYEIDGGTMLITSGCAVAVNIIMGLTLHQSGHGHSHGTTNQQEENPSVRAAFIHVIGDFMQSMGVLVAAYILYFKPEYKYVDPICTFVFSILVLGTTLTILRDVILVLMEGTPKGVDFTAVRDLLLSVEGVEALHSLHIWALTVAQPVLSVHIAIAQNTDAQAVLKTASSRLQGKFHFHTVTIQIEDYSEDMKDCQACQGPSD
partner: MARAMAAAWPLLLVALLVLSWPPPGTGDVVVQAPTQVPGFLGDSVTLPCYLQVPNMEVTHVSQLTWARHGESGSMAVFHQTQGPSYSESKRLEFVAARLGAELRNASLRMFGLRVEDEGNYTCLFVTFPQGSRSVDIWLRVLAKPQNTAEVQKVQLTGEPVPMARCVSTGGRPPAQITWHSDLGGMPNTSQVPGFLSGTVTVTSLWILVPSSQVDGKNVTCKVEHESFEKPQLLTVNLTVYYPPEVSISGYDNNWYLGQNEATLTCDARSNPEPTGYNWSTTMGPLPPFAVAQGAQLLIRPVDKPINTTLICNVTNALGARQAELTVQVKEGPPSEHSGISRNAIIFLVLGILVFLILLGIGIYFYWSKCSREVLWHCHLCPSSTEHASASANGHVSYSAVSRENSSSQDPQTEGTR
B3: Calcium-binding and coiled-coil domain-containing protein 2 (Homo sapiens), Q13137 (parent)
chain: MEETIKDPPTSAVLLDHCHFSQVIFNSVEKFYIPGGDVTCHYTFTQHFIPRRKDWIGIFRVGWKTTREYYTFMWVTLPIDLNNKSAKQQEVQFKAYYLPKDDEYYQFCYVDEDGVVRGASIPFQFRPENEEDILVVTTQGEVEEIEQHNKELCKENQELKDSCISLQKQNSDMQAELQKKQEELETLQSINKKLELKVKEQKDYWETELLQLKEQNQKMSSENEKMGIRVDQLQAQLSTQEKEMEKLVQGDQDKTEQLEQLKKENDHLFLSLTEQRKDQKKLEQTVEQMKQNETTAMKKQQELMDENFDLSKRLSENEIICNALQRQKERLEGENDLLKRENSRLLSYMGLDFNSLPYQVPTSDEGGARQNPGLAYGNPYSGIQESSSPSPLSIKKCPICKADDICDHTLEQQQMQPLCFNCPICDKIFPATEKQIFEDHVFCHSL
partner: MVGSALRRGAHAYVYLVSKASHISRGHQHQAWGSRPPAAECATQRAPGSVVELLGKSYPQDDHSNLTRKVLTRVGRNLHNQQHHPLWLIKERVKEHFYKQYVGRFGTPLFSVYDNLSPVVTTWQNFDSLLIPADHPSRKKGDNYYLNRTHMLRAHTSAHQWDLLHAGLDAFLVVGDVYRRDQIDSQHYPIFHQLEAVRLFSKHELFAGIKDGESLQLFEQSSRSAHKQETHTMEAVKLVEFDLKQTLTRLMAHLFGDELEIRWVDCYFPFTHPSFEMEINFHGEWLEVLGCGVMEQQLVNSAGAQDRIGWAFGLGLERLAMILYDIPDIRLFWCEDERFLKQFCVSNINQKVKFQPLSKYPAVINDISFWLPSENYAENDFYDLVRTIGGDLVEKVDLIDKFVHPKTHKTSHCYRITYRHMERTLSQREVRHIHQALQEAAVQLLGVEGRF
B4: Mannose-1-phosphate guanylyltransferase regulatory subunit alpha (Homo sapiens), Q96IJ6 (parent)
chain: MLKAVILIGGPQKGTRFRPLSFEVPKPLFPVAGVPMIQHHIEACAQVPGMQEILLIGFYQPDEPLTQFLEAAQQEFNLPVRYLQEFAPLGTGGGLYHFRDQILAGSPEAFFVLNADVCSDFPLSAMLEAHRRQRHPFLLLGTTANRTQSLNYGCIVENPQTHEVLHYVEKPSTFISDIINCGIYLFSPEALKPLRDVFQRNQQDGQLEDSPGLWPGAGTIRLEQDVFSALAGQGQIYVHLTDGIWSQIKSAGSALYASRLYLSRYQDTHPERLAKHTPGGPWIRGNVYIHPTAKVAPSAVLGPNVSIGKGVTVGEGVRLRESIVLHGATLQEHTCVLHSIVGWGSTVGRWARVEGTPSDPNPNDPRARMDSESLFKDGKLLPAITILGCRVRIPAEVLILNSIVLPHKELSRSFTNQIIL
B5: Melanoma-associated antigen 8 (Homo sapiens), P43361 (parent)
chain: MLLGQKSQRYKAEEGLQAQGEAPGLMDVQIPTAEEQKAASSSSTLIMGTLEEVTDSGSPSPPQSPEGASSSLTVTDSTLWSQSDEGSSSNEEEGPSTSPDPAHLESLFREALDEKVAELVRFLLRKYQIKEPVTKAEMLESVIKNYKNHFPDIFSKASECMQVIFGIDVKEVDPAGHSYILVTCLGLSYDGLLGDDQSTPKTGLLIIVLGMILMEGSRAPEEAIWEALSVMGLYDGREHSVYWKLRKLLTQEWVQENYLEYRQAPGSDPVRYEFLWGPRALAETSYVKVLEHVVRVNARVRISYPSLHEEALGEEKGV
partner: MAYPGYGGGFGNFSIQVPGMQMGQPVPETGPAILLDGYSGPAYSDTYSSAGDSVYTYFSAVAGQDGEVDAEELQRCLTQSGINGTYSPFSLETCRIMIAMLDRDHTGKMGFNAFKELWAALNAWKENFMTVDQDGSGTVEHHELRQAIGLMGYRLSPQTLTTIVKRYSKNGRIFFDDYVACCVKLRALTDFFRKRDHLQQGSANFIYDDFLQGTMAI

Variants of: B1
Conditions: with bcl6b_human BCL6B

| effect of a mutation on the interaction | Variant |
| --- | --- |
| with no effect | A115T |
| with no effect | R74Q |

Variants of: B2
Conditions: with pvr_human PVR

| effect of a mutation on the interaction | Variant |
| --- | --- |
| with no effect | MEAKEKQHLLDARPAIRSYTGSLWQEGAGWIPLPRPGLDLQAIELAAQSNHHCHAQKGPDSHCDPKKGKAQRQLYVASAICLLFMIGEVVGGYLAHSLAVMTDAAHLLTDFASMLISLFSLWMSSRPATKTMNFGWQRAEILGALVSVLSIWVVTGVLVYLAVERLISGDYEIDGGTMLIMSGCAVAVNIIMGLTLHQSGHGHSHGTTNQQEENPSVRAAFIHVIGDFMQSMGVLVAAYILYFKPEYKYVDPICTFVFSILVLGTTLTILRDVILVLMEGTPKGVDFTAVRDLLLSVEGVEALHSLHIWALTVAQPVLSVHIAIAQNTDAQAVLKTASSRLQGKFHFHTVTIQIEDYSEDMKDCQACQGPSD [T181M] |

Variants of: B3
Conditions: with syfm_human FARS2, O95363

| effect of a mutation on the interaction | Variant |
| --- | --- |
| with no effect | MEETIKDPPTSAVLLDHCHFSQVIFNSVEKFYIPGGDVTCHYTFTQHFIPRRKDWIGIFRVGWKTTREYYTFMWVTLPIDLNNKSAKQQEVQFKAYYLPKDDEYYQFCYVDEDGVVRGASIPFQFRPENEEDILVVTTQGEVEEIEQHNKELCKENQELKDSCISLQKQNSDMQAELQKKQEELETLQSINKKLELKVKEQKDYWETELLQLKEQNQKMSSKNEKMGIRVDQLQAQLSTQEKEMEKLVQGDQDKTEQLEQLKKENDHLFLSLTEQRKDQKKLEQTVEQMKQNETTAMKKQQELMDENFDLSKRLSENEIICNALQRQKERLEGENDLLKRENSRLLSYMGLDFNSLPYQVPTSDEGGARQNPGLAYGNPYSGIQESSSPSPLSIKKCPICKADDICDHTLEQQQMQPLCFNCPICDKIFPATEKQIFEDHVFCHSL [E222K] |

Variants of: B4
Conditions: with gmppb_human GMPPB

| effect of a mutation on the interaction | Variant |
| --- | --- |
| with no effect | MLKAVILIGGPQKGTRFRPLSFEVPKPLFPVAGVPMIQHHIEACAQVPGMQEILLIGFYQPDEPLTQFLEAAQQEFNLPVRYLQEFAPLGTGGGLYHFRDQILAGSPEAFFVLNADVCSDFPLSAMLEAHRRQRHPFLLLGTTANRTQSLNYGCIIENPQTHEVLHYVEKPSTFISDIINCGIYLFSPEALKPLRDVFQRNQQDGQLEDSPGLWPGAGTIRLEQDVFSALAGQGQIYVHLTDGIWSQIKSAGSALYASRLYLSRYQDTHPERLAKHTPGGPWIRGNVYIHPTAKVAPSAVLGPNVSIGKGVTVGEGVRLRESIVLHGATLQEHTCVLHSIVGWGSTVGRWARVEGTPSDPNPNDPRARMDSESLFKDGKLLPAITILGCRVRIPAEVLILNSIVLPHKELSRSFTNQIIL [V156I] |

Variants of: B5
Conditions: with gran_human GCA

| effect of a mutation on the interaction | Variant |
| --- | --- |
| with no effect | MLLGQKSQCYKAEEGLQAQGEAPGLMDVQIPTAEEQKAASSSSTLIMGTLEEVTDSGSPSPPQSPEGASSSLTVTDSTLWSQSDEGSSSNEEEGPSTSPDPAHLESLFREALDEKVAELVRFLLRKYQIKEPVTKAEMLESVIKNYKNHFPDIFSKASECMQVIFGIDVKEVDPAGHSYILVTCLGLSYDGLLGDDQSTPKTGLLIIVLGMILMEGSRAPEEAIWEALSVMGLYDGREHSVYWKLRKLLTQEWVQENYLEYRQAPGSDPVRYEFLWGPRALAETSYVKVLEHVVRVNARVRISYPSLHEEALGEEKGV [R9C] |
